Experiments:
CRPMTB wildtype [1] = biological target: T1, CRPMTB wildtype (Mycobacterium tuberculosis, UniProt P9WMH3 1-224); test: fluorescence anisotropy; 1 mM cAMP; specific 1:1 transition; 75 mM KCl, 50 mM HEPES, 1 mM EDTA, pH 7.6; […]; temperature not stated; settings: protein: recombinant; tags: His-tag (pET-3a); chain copies: 2; label: fluorescein; blunt
T1 sequence: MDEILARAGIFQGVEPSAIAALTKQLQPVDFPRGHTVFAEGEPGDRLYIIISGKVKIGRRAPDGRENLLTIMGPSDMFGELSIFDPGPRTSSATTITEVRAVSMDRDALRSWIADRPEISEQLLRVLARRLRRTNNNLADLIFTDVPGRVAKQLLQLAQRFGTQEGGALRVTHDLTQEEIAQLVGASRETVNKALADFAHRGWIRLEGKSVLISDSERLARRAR

CRPMTB wildtype [2] = biological target: T1, CRPMTB wildtype; test: fluorescence anisotropy; no cAMP; specific 1:1 transition; 75 mM KCl, 50 mM HEPES, 1 mM EDTA, pH 7.6; […]; temperature not stated; settings: protein: recombinant; tags: His-tag (pET-3a); chain copies: 2; label: fluorescein; blunt

B1: serC32 full-site promoter (dsDNA)
DNA 1: GCGCGTAGTGTGAACAAGCTCACATGCAAGCC
DNA 2: GGCTTGCATGTGAGCTTGTTCACACTACGCGC
Ka (CRPMTB wildtype [1]): 2.81 ± 0.01 10^8 M-1 | Ka (CRPMTB wildtype [2]): 1.87 ± 0.01 10^8 M-1
